In the nanobody polyreactivity screen of Harvey et al. (2022):

Test: yeast display, Sf9 membrane polyspecificity reagent, FACS + sequencing; frameworks hold sequencing errors
Outline: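 Nanobodies came from a synthetic yeast display library in Saccharomyces cerevisiae BJ5465, induced with galactose for 36–48 hours and stained for 1 hour at 4 °C with 10% biotinylated, detergent-solubilized Sf9 membrane reagent. Cells were enriched on streptavidin microbeads and then FACS-sorted, with low and high (top ~1%) gates set on anti-HA fluorescence for expression and streptavidin fluorescence for reagent binding. Each polyreactivity label reflects the gate a clone came from. Genes were amplified by colony PCR, sequenced by MiSeq 2 × 250 and filtered by CDR length.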

Row | Sequence | polyreactivity (PSR sort gate)
1 | QVHLVESGGGLVQAGGSLRLSCAASGRTIAAYAMGWYRQAPGKERELVAAISRSGGSTYYADSVKGRFTISRDNAKNTVYLQMNSLKPEDTAVYYCAAQRQYGKFDYWGQGTQVTVSS | high polyreactivity
2 | QVQLVESGGGLVQAGGSLRLSCAASGFTFYRYAMGWYRQAPGKERELVATISASGGSTYYADSVKGRFTISRDNAKNTVYLQMNSLKPEDTAVYYCAVRYKSWYGFNYWGQGTQVTVSS | high polyreactivity
3 | QVQHVESGGGLVQAVGSLRLSCAASGNIFDRNAMGWYRQARGKERELVAAISRSGGRTYYADSVKGRFTISRDNAKNTVYLQMNSLKPEDTAVYYCNRRYRKYSSAKYDYWGQGTQVTVSS | high polyreactivity
4 | QVQLVESGGGLVQAGGSLRLSCAASGRTFWVNAMGWYRQAPGKERELVAAITSSVSSTYYADSVKGRFTISRDNAKNTVYLQMNSLKPEDTAVYYCAAGVGRGMYYWGQGTQVTVSS | low polyreactivity
5 | QVQLVESGGGLVQAGGSLRLSCAASGFTFTFNAMGWYRQEPGKEREFVAAITWSGGSTYYADSVKGRFTISRDNAKNTVYLQMNSLKPEDTAVYYCAARLYRSFTFNYWGQGTQVTVSS | high polyreactivity
6 | QVQLVESGGGLVQAGGSLRLSCAASGGTFRPYAIGWYRQAPGKERELVATIRSSGGRTYYADSVKGRFTISRDNAKNTVYLQMNSLKPEDTAVYYCAKRAQTYYGYVYWGQGTQVTVSS | high polyreactivity
7 | QGQLVESGGALVQAGGSLRLICAASGRTFAAYSMGWYRQAPGKERELVAAISIGGSTNYADSVKVRFTISRDNAKNSVYLQMNSLKPEDSAVYYCAAPGRRYLRARIRYEYWGQGTQLTVSS | high polyreactivity
8 | QVQLVESGGGLVQAGGSLRLSCAASGFTFVYYAMGWYRQAPGKEREFAYYADSVKGRFTISRDNAKNTVYLQMNSLKPEDTAVYYCNAAEDEGDRPITQVGYDYWGQGTQVTVSS | low polyreactivity
9 | QVQLVESGGGLVQAGGSLRLSCAASGSIFGRNTMGWYRQAPGKERELVAAIDSSGGSTYYADSVKGRFTISRDNAKNTVYLQMNSLKPEDTAVYYCAAESRYATKSGYGLVLYYYWGQGTQVTVSS | high polyreactivity
10 | QVQLVESGGGLVQAGGSLLLSCAASGSTFGYNTMGWYRQAPGKERELVAAINYSGGRTYYADSVKGRFTISRDYAMNTVYLQMNSQKPEDTAVYYCNALSYPSRVYDAYDYWGQGTQVTVSS | high polyreactivity
11 | QVQLVESGGGLVQAGGSLRLSCAASGFTISQYAMGWYRQAPGKERELVAAISASGGRTYYADSVKGRFTISRDNAKNTVYLQMNSLKPDDTAVYYCAAKLYVSGGRYWYDYWGQGTQVTVSS | high polyreactivity
12 | QVQLVESGGGLVQAGGSLRLSCAASGRIFLTYAMGWYRQAPGKERELVAAISGRGGSTYYADSVNGRFTISRDYAKNTVYLQMNSLKPEDTAVYYCAAAKWVIQTGNYYYWGQGTQVTVSS | low polyreactivity
13 | QVQLVESGGGLVQAGGSLRLSWAASGITFRKNAMGWYRQAPGKERQLVATITRRGGSTFYADSVKGRFTISRDNANNTVYLQFKSLKPVDSAVYYFAADYATRDGDYESWGQGTQVTVSS | high polyreactivity
14 | QVQLVESGGGLVQAGGSLRLSCAASGSIFYSNAMGWYRQAPGKERELVATIRSGGTTYYADSVKGRFTISRDNAKNTVYLQMNSLKPEDTAVYYCANRYGVKYWGQGTQVTVSS | high polyreactivity
15 | QVQLVESGGGLVQAGGSLRLSCAASGSIFVLYTMGWYRQAPGKERELVAAISYSGGSTNYADSVKGRFTISRDNAKNTVYLQMNSLKPEDTAVYYCAARASKGHKYWGQGTQVTVSS | high polyreactivity
16 | QVQLVESGGGLVQAGGSLRLSCAASGITIVLYAMGWYRQAPGKERELVAAINIDGNTNYADSVKGRFTISRDNAKNTVYLQMNSLKPEDTAVYYCATYYYYPSWYLLYGEYNYWGQGTQVTVSS | low polyreactivity
17 | QVQHVESGGGLVQAGGSLRLSCAASGITFVPNAMGWYRQAHGKERELVAAITSGDSTNYADSVKGRFTISRDNAKNTVYLQMNSLKPEDTAVYYCAADSWAQRPNQGRVSLHYYWGQGTLVTVSS | low polyreactivity
18 | QVQLVESGGGLVQAGGSLRLSCAASGRILYRNAMGWYRQAPGKERELVAAITTRGTSTYYADSVKGRFTISRDNAKNTVYLQMNSLKPEDTAVYYCAADSWFSYRGPLYYWGQGTQVTVSS | high polyreactivity
19 | QVQLVESGGGLVQAGGSLRISCAASGSTFWGYDKGWYRQAPGKERELVAAITRNGGGTYYADSVKGRFTISRDNAKNTVYLQMNSLKPEDTAVYYCASTRGAYYLYGGHKMDYWGQGSQVTVSS | high polyreactivity
20 | QVQLVESGGGLVQAGGSLRLSCAASGITFRYNAMGWYRQAPGKERELVAAITFSGGSTYYADSVKGRFTISRDNAKNTVNLQMNSLKPEDTAVYYCAKLGSTSSRGNYDYWGQGTQVTVSS | low polyreactivity
21 | QVQLVESGGGLVQAGGSLRLSCAASGSIFVYYAMGWYRQAPGKEREFVATISSSGGSTYYADSVKGRFTISRDNAKNTVYLQRNSLKPEDTAVYYCNRRYFFFYGHSFDYWGQGTQVTVSS | high polyreactivity
22 | QVQLVESGGGLVQAGGSLRLSCAGSGGPFLDYIGWYRQAPGKEMVLVAAITFSGGSTYYADSVKGRLTISRENAKNTVYVQMNSLKPDDTAVYFCAAGWYDWPKYLLGGYTYYLYDSWRQGTQVTVSS | low polyreactivity

Row | Sequence | polyreactivity (PSR sort gate)
23 | QDQLVESGGGLVQAGGSIRLSCAASGSILRSNALGWYRQAHVQERELVAAITFNGGSTYADSVKGRFTISRDNAKNNVYLQMNSLKPVDTSVSYCATGDGPCLFDYWGQGTQVTVSS | low polyreactivity
24 | QVQLVESGGGLVQAGGSLRLSCAASGFTFGINAMGWSRQAPGKERELVASISSGSSTTYADSVKGRFTISRDNAKNTVYLQMNRLKPEDTAVYYCNARPFHIYWRYDYWGQGTQVTVSS | low polyreactivity
25 | QVQLVESGGGLDQAGGSLRLSCAASGSIFTGNAMGLYRQAPGKERELVAAISSSGGSTYYADSVKGRFTISRDNAKNTVYLQMNSLKPEDTAVYYCAAYKYFLQYDYWGQGTQVTVSS | low polyreactivity
26 | QDQLVESGGGLVQEGGSLRLICAASGRTLQSYAMGGYRQAPGKERELVAAISGGASTYADSVKGRFTISRDNAKNTVYLQMNSLKPEDTAVYYCAADDDPVPTYEYDYWGQGTQVTVSS | low polyreactivity
27 | QVQLVETGGGLVQAGGSLRLSCAASGRIFGYYTMGWYRPAPGKERELVADSSGGNTSYADSVKGRFTISRDNAKNTVYLQMNSLKPEDTAVYYCAKDLPGAWRGDDYWGQGTLVTVSS | low polyreactivity
28 | QVQLVESGGGLVQAGGSLRLSCAASGRTFGKYAMGWYRQAPGKDRELVATISRSGGSTYYAVSVKGRFTISRDNAKNTVYLQMNSLKPEDTAVYYCNAVTSRYIWPPVVDRYHYWGQGTQVTVSS | high polyreactivity
29 | QVQLVESGGGLVQAGGSLRLSCAASGFTFVSNAMGWYRQAPGKERELVAAITYSGTRTYYADSVKGRFTISRDNAKNTVYLQMNSLKPEDTAVYYCAARRGYASAYYYWGQGTQVTVSS | high polyreactivity
30 | QVQLVESGGGLVQAGGSLLLSCAASGFTFKCYAMGWYRQAPGKERELVAAISRSGSSTYYADSVKVRFTISRDTAKNTVYLQMNSLKPEDTAVYYCAAYYRTWGGYWGQGTQVTVSS | high polyreactivity
31 | QVQLVESGGGLVQAGGSLRLSCAASGFTFVLYAMGWYRQAPGKERELVADITEGGDNTYYADSVKGRFTISRDNAKNTVYLQMNSLKPEDTAVYYCNARASRLYPPYDYWGQGTQVTVSS | high polyreactivity
32 | QVQLVESGGGFVQAGGSLRLSCAASGSTFRWNAMGWYRHAPGKERELDASITAGGSTNYADSVKGRFTISRDNAKNTVYLQINSLTPEDTAVYYCNADVRRSTYYVWLYDYWGQGTQVTVSS | low polyreactivity
33 | QEQLQESGGGLVQACGSLRLSCAASGSISGSSTMGWYRQAPGKERELVASIAVGANTNYADSAKGRFTISRDNAKTTVYLQMNSLKPEDSAVYYCAADYWFGYGTYEYWGQGTQVTVSS | high polyreactivity
34 | QVQLVESGGGLVQAGGSLRLSCAASGRIFRYYVMGWYRHAPGKEREFVASISGRGASTYYADSVKGRFTISRDNAKNTVYLLMNSLKPEDTAVYYCNADVWLLSYFPEYDYWGQGTQVTVSS | low polyreactivity
35 | QVQLVESGGGLVQAGGSLRLSCAASGSIFNTYAMGWYRQAPGKEREFVASISRSGGSTRYADSVKGRFTISRDNAKNTVYLQMNSLIPEDTAVYYCAASWLGASGIRYDYWGQGTQVTVSS | high polyreactivity
36 | QVQLVESGGGLVQAGRSLRLSCAASGLTFSLYAMGWSRQAPGKERELVAANSWTGGSTYYADSVKGRFTISRDNAKNTVYLQMNSLKPEDTAVYYCNARYTLFARYGYDYWGQGTQVTVSS | low polyreactivity
37 | QVQLVESGGGLVQAGGSLRLSCAASGFNFSKYAMGWYRQAPGKERELVARINYNGGSTYYADSVKGRFTISRDNAKNTVYLQMNSLKPEDTAVYYCALVWRFSTRYYYWGQGTQVTVSS | high polyreactivity
38 | QVQLVESGGGLVQAGGSLRLSCAASGFIFPNYAMGWYRQAPGKEREFVASISWSGGSTYYADSVKGRFTISRDNAKNTVYLQMNSLKPEDTEVYYCNAVAFFNHGAGEDYWGQGTQVTVSS | high polyreactivity
39 | QVQLVESGGGLVQAGGSLRLSCAASGFIFPRNAMGWYRQAPGKERELVAGITRGGSTNYADSVKGRFTISRDNAKNTVYLQMNSLKPEDTAVYYCAAKSYNYNRPYGWREYDYWGQGTQVTVSS | high polyreactivity
40 | QVQLVESGGGLVQAGGSLRLSCAASGFTFFSNAMGWYRQAPGKERELVAAITSSGGSTYADSVKGRFTISRDNAKNTVYLQMNSLKPEDTAVYYCAADAEAPPGGFKEYDYWGHGTQVTVSS | low polyreactivity
41 | QVQLVESGGGLVQAGGSLRLSCAASGRTFGRYALGWYRQAPGKERELVAAIRSGGSTYYADSVKGRFTISRDNAKNTVYLQMNSLKPEDTAVYYCAADIARHLTGFAYYRLDYWGQGTQVTVSS | low polyreactivity
42 | QVQLVESGGGLVQAGGSLRLSCAASGSTFYYNGMGWYRQAPGKERELVARITRTGGSTYYADSVKGRFTISRDNAKNTVYLQMNSLKPEDTAVYYCNADYYSRTKRKYRYGYWGQGTQVTVSS | high polyreactivity
43 | QVQLVESGGGLVQAGGSLRLSCASSGTTFQYYAMGSYRQAPGKERELVARISDSSANTYYADSVNGRFTISRDNAMNTVYLQMNSLKPEDTAVYYCAASVPYKFYCVVSVRYEYWGQGTQVTVSS | low polyreactivity
